Source: IntAct's records for PubMed 35512704

B1: Mothers against decapentaplegic homolog 4 (Homo sapiens), Q13485 (parent)
chain: MDNMSITNTPTSNDACLSIVHSLMCHRQGGESETFAKRAIESLVKKLKEKKDELDSLITAITTNGAHPSKCVTIQRTLDGRLQVAGRKGFPHVIYARLWRWPDLHKNELKHVKYCQYAFDLKCDSVCVNPYHYERVVSPGIDLSGLTLQSNAPSSMMVKDEYVHDFEGQPSLSTEGHSIQTIQHPPSNRASTETYSTPALLAPSESNATSTANFPNIPVASTSQPASILGGSHSEGLLQIASGPQPGQQQNGFTGQPATYHHNSTTTWTGSRTAPYTPNLPHHQNGHLQHHPPMPPHPGHYWPVHNELAFQPPISNHPAPEYWCSIAYFEMDVQVGETFKVPSSCPIVTVDGYVDPSGGDRFCLGQLSNVHRTEAIERARLHIGKGVQLECKGEGDVWVRCLSDHAVFVQSYYLDREAGRAPGDAVHKIYPSAYIKVFDLRQCHRQMQQQAATAQAAAAAQAAAVAGNIPGPGSVGGIAPAISLSAAAGIGVDDLRRLCILRMSFVKGWGPDYPRQSIKETPCWIEIHLHRALQLLDEVLHTMPIADPQPLD

Variants of: B1
Conditions: with smad3_human SMAD3, P84022
In the case of R361H, the “effect of a mutation on the interaction” value is reported as “disrupting interaction strength”.

Variants of: B1
Conditions: with agap2_human AGAP2, Q99490
For R361H, the “effect of a mutation on the interaction” value was “with no effect”.

Variants of: B1
Conditions: with ajuba_human AJUBA
R361H was tested, and the “effect of a mutation on the interaction” value was “with no effect”.

Variants of: B1
Conditions: with akt1_human AKT1, P31749
For R361H, the “effect of a mutation on the interaction” value was “with no effect”.

Variants of: B1
Conditions: with akts1_human AKT1S1, Q96B36
For R361H, the “effect of a mutation on the interaction” value was “with no effect”.

Variants of: B1
Conditions: with akt3_human AKT3, Q9Y243
With R361H the “effect of a mutation on the interaction” value was “with no effect”.

Variants of: B1
Conditions: with alk_human ALK
For R361H, the “effect of a mutation on the interaction” value was “with no effect”.

Variants of: B1
Conditions: with aph1a_human APH1A
In the case of R361H, the “effect of a mutation on the interaction” value is reported as “with no effect”.

Variants of: B1
Conditions: with arnt_human ARNT
For R361H, the “effect of a mutation on the interaction” value was “with no effect”.

Variants of: B1
Conditions: with arc1a_human ARPC1A
In the case of R361H, the “effect of a mutation on the interaction” value is reported as “with no effect”.

Variants of: B1
Conditions: with asxl1_human ASXL1, Q8IXJ9
With R361H the “effect of a mutation on the interaction” value was “with no effect”.

Variants of: B1
Conditions: with bakor_human ATG14, Q6ZNE5
For R361H, the “effect of a mutation on the interaction” value was “with no effect”.

Variants of: B1
Conditions: with atpb_human ATP5F1B
R361H was tested, and the “effect of a mutation on the interaction” value was “with no effect”.

Variants of: B1
Conditions: with aurkb_human AURKB
R361H was tested, and the “effect of a mutation on the interaction” value was “with no effect”.

Variants of: B1
Conditions: with ufo_human AXL
For R361H, the “effect of a mutation on the interaction” value was “with no effect”.

Variants of: B1
Conditions: with za2g_human AZGP1, P25311
In the case of R361H, the “effect of a mutation on the interaction” value is reported as “with no effect”.

Variants of: B1
Conditions: with b2mg_human B2M
R361H was tested, and the “effect of a mutation on the interaction” value was “with no effect”.

Variants of: B1
Conditions: with bap1_human BAP1, Q92560
For R361H, the “effect of a mutation on the interaction” value was “with no effect”.

Variants of: B1
Conditions: with becn1_human BECN1, Q14457
In the case of R361H, the “effect of a mutation on the interaction” value is reported as “with no effect”.

Variants of: B1
Conditions: with birc2_human BIRC2, Q13490
With R361H the “effect of a mutation on the interaction” value was “with no effect”.

Variants of: B1
Conditions: with braf_human BRAF
For R361H, the “effect of a mutation on the interaction” value was “with no effect”.

Variants of: B1
Conditions: with baba2_human BABAM2, Q9NXR7
In the case of R361H, the “effect of a mutation on the interaction” value is reported as “with no effect”.

Variants of: B1
Conditions: with cbl_human CBL
In the case of R361H, the “effect of a mutation on the interaction” value is reported as “with no effect”.

Variants of: B1
Conditions: with cblb_human CBLB
For R361H, the “effect of a mutation on the interaction” value was “with no effect”.

Variants of: B1
Conditions: with ccnd2_human CCND2, P30279
R361H was tested, and the “effect of a mutation on the interaction” value was “with no effect”.

Variants of: B1
Conditions: with ccnd3_human CCND3, P30281
In the case of R361H, the “effect of a mutation on the interaction” value is reported as “with no effect”.

Variants of: B1
Conditions: with cd44_human CD44, P16070
With R361H the “effect of a mutation on the interaction” value was “with no effect”.

Variants of: B1
Conditions: with cd79b_human CD79B
For R361H, the “effect of a mutation on the interaction” value was “with no effect”.

Variants of: B1
Conditions: with cdn2b_human CDKN2B
In the case of R361H, the “effect of a mutation on the interaction” value is reported as “with no effect”.

Variants of: B1
Conditions: with cdn2c_human CDKN2C
In the case of R361H, the “effect of a mutation on the interaction” value is reported as “with no effect”.

Variants of: B1
Conditions: with cebpa_human CEBPA
In the case of R361H, the “effect of a mutation on the interaction” value is reported as “with no effect”.

Variants of: B1
Conditions: with chd1l_human CHD1L
R361H was tested, and the “effect of a mutation on the interaction” value was “with no effect”.

Variants of: B1
Conditions: with ch3l1_human CHI3L1, P36222
For R361H, the “effect of a mutation on the interaction” value was “with no effect”.

Variants of: B1
Conditions: with ctna1_human CTNNA1, P35221
For R361H, the “effect of a mutation on the interaction” value was “with no effect”.

Variants of: B1
Conditions: with ctnb1_human CTNNB1, P35222
For R361H, the “effect of a mutation on the interaction” value was “with no effect”.

Variants of: B1
Conditions: with cul3_human CUL3, Q13618
For R361H, the “effect of a mutation on the interaction” value was “with no effect”.

Variants of: B1
Conditions: with cul4b_human CUL4B
In the case of R361H, the “effect of a mutation on the interaction” value is reported as “with no effect”.

Variants of: B1
Conditions: with dicer_human DICER1, Q9UPY3
Sequence of dicer_human DICER1, Q9UPY3 (Q9UPY3 whole entry): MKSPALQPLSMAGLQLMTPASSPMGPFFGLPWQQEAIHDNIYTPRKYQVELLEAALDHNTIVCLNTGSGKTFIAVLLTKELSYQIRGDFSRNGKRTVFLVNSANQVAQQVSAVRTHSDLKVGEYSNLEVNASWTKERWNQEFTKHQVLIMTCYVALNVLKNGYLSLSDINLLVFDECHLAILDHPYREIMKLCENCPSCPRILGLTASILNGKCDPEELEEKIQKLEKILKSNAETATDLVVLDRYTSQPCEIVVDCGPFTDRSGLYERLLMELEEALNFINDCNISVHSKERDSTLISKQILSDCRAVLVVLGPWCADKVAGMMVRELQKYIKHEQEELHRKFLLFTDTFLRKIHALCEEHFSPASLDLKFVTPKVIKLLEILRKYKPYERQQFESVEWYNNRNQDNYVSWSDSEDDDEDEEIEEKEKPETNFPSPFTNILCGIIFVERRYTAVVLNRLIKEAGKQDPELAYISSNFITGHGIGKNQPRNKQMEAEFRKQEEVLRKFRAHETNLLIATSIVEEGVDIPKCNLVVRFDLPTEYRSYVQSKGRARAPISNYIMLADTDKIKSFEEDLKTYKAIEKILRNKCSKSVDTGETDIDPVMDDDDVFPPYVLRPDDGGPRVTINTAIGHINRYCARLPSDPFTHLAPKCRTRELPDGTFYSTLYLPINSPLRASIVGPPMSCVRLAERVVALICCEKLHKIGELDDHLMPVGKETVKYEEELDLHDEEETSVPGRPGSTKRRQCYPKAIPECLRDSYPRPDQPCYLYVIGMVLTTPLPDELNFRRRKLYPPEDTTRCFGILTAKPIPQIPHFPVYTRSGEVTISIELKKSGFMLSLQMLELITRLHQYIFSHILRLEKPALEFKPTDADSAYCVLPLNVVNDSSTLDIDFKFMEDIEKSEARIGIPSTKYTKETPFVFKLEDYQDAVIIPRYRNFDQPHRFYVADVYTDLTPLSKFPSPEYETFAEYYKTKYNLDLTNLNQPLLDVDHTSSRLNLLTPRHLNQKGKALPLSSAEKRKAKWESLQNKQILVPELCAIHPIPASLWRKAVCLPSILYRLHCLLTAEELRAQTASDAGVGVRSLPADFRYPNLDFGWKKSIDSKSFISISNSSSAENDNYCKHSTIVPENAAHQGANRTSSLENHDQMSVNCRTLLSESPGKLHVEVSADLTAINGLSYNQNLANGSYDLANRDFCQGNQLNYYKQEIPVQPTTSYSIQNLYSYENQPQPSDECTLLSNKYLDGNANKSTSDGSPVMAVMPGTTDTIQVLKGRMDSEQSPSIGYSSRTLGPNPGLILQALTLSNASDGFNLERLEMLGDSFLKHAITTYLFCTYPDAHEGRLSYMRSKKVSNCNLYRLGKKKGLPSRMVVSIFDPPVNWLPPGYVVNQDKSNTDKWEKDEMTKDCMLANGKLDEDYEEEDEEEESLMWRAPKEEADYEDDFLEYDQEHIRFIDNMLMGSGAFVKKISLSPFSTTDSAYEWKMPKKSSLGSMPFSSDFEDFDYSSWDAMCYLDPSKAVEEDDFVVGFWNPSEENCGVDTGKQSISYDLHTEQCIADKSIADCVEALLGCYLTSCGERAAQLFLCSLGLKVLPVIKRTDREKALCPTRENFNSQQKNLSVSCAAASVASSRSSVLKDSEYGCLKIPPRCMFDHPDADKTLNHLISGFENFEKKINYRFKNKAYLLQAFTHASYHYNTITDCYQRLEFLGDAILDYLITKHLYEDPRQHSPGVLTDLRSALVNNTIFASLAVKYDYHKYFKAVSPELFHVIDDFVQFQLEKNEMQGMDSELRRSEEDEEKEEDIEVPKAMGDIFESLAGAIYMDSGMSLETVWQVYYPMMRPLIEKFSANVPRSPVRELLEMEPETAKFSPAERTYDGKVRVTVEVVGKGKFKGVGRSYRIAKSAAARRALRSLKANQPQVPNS
R361H was tested, and the “effect of a mutation on the interaction” value was “with no effect”.

Variants of: B1
Conditions: with dll3_human DLL3, Q9NYJ7
For R361H, the “effect of a mutation on the interaction” value was “with no effect”.

Variants of: B1
Conditions: with duox2_human DUOX2, Q9NRD8
For R361H, the “effect of a mutation on the interaction” value was “with no effect”.

Variants of: B1
Conditions: with e2f3_human E2F3, O00716
Sequence of e2f3_human E2F3, O00716 (O00716 whole entry): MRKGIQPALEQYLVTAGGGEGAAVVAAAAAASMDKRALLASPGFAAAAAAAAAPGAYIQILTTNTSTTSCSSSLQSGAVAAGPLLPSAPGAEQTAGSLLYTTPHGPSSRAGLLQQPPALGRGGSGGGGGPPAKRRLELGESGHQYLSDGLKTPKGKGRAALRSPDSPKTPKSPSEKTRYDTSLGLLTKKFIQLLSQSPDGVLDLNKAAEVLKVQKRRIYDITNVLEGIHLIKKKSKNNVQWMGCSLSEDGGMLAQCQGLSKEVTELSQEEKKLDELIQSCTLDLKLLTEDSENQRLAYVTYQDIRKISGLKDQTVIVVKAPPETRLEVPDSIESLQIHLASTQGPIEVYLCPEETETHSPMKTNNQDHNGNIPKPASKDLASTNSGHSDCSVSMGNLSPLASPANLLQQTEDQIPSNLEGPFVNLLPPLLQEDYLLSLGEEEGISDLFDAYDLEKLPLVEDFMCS
R361H was tested, and the “effect of a mutation on the interaction” value was “with no effect”.

Variants of: B1
Conditions: with e2f4_human E2F4, Q16254
R361H was tested, and the “effect of a mutation on the interaction” value was “with no effect”.

Variants of: B1
Conditions: with e2f5_human E2F5, Q15329
In the case of R361H, the “effect of a mutation on the interaction” value is reported as “with no effect”.

Variants of: B1
Conditions: with if4e_human EIF4E
In the case of R361H, the “effect of a mutation on the interaction” value is reported as “with no effect”.

Variants of: B1
Conditions: with epha2_human EPHA2, P29317
With R361H the “effect of a mutation on the interaction” value was “with no effect”.

Variants of: B1
Conditions: with epha7_human EPHA7, Q15375
With R361H the “effect of a mutation on the interaction” value was “with no effect”.

Variants of: B1
Conditions: with ephb1_human EPHB1, P54762
R361H was tested, and the “effect of a mutation on the interaction” value was “with no effect”.

Variants of: B1
Conditions: with erbb3_human ERBB3, P21860
R361H was tested, and the “effect of a mutation on the interaction” value was “with no effect”.

Variants of: B1
Conditions: with erbb4_human ERBB4, Q15303
With R361H the “effect of a mutation on the interaction” value was “with no effect”.

Variants of: B1
Conditions: with esr1_human ESR1, P03372
In the case of R361H, the “effect of a mutation on the interaction” value is reported as “with no effect”.

Variants of: B1
Conditions: with etv1_human ETV1, P50549
Sequence of etv1_human ETV1, P50549 (P50549 whole entry): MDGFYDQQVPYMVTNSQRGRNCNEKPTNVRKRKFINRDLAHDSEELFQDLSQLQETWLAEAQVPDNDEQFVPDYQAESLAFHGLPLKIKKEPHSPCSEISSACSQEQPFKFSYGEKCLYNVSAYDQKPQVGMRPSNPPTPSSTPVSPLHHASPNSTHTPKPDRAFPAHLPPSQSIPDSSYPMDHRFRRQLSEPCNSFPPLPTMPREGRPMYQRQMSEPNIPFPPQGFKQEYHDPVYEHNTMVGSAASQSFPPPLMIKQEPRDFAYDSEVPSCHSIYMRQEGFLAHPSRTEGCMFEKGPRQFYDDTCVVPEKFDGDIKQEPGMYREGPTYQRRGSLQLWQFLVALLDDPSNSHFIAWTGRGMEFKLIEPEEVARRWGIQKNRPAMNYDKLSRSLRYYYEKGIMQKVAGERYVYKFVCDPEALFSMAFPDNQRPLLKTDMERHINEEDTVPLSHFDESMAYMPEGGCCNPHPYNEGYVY
With R361H the “effect of a mutation on the interaction” value was “with no effect”.

Variants of: B1
Conditions: with fadd_human FADD
With R361H the “effect of a mutation on the interaction” value was “with no effect”.

Variants of: B1
Conditions: with facd2_human FANCD2, Q9BXW9
With R361H the “effect of a mutation on the interaction” value was “with no effect”.

Variants of: B1
Conditions: with fgf19_human FGF19, O95750
For R361H, the “effect of a mutation on the interaction” value was “with no effect”.

Variants of: B1
Conditions: with fgfr3_human FGFR3, P22607
Sequence of fgfr3_human FGFR3, P22607 (P22607 whole entry, looked up): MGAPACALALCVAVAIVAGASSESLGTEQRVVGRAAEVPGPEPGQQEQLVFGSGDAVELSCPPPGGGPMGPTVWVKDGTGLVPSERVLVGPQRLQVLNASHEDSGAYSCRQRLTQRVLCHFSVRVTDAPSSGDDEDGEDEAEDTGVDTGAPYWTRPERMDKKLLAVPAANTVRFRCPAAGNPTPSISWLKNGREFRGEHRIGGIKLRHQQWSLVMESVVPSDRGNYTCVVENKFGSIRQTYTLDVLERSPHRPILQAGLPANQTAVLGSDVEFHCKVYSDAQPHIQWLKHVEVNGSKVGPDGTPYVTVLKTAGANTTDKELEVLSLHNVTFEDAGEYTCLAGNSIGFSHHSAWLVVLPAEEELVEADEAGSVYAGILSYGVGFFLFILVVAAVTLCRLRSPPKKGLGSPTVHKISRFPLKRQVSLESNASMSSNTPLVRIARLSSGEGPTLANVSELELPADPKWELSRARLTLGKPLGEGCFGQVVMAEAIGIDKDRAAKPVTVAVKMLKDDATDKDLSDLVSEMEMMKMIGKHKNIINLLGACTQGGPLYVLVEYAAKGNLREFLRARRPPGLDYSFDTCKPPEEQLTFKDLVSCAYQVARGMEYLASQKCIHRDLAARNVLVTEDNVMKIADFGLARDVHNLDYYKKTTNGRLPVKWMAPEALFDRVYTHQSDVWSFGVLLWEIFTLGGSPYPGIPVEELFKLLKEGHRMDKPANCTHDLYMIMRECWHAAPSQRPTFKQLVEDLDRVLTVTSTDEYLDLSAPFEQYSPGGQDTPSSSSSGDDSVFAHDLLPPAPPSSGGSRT
In the case of R361H, the “effect of a mutation on the interaction” value is reported as “with no effect”.

Variants of: B1
Conditions: with fgfr4_human FGFR4, P22455
In the case of R361H, the “effect of a mutation on the interaction” value is reported as “with no effect”.

Variants of: B1
Conditions: with foxo1_human FOXO1, Q12778
Sequence of foxo1_human FOXO1, Q12778 (Q12778 whole entry): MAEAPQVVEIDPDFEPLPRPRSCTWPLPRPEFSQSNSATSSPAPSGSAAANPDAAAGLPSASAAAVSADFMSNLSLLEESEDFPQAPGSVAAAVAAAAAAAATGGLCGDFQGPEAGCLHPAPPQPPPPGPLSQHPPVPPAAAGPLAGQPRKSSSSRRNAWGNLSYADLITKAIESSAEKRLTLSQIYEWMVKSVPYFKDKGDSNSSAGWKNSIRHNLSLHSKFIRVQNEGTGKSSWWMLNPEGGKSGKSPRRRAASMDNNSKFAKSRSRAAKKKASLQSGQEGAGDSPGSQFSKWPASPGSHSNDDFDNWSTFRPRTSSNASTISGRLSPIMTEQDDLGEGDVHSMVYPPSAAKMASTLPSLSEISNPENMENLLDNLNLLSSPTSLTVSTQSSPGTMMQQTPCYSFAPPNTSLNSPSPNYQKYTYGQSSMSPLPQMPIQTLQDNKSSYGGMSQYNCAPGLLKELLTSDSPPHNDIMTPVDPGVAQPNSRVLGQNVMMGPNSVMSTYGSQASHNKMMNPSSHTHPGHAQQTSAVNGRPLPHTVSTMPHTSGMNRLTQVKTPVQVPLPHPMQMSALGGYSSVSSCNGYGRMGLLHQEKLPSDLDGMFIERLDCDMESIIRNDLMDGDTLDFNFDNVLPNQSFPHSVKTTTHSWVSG
For R361H, the “effect of a mutation on the interaction” value was “with no effect”.

Variants of: B1
Conditions: with gbra6_human GABRA6, Q16445
For R361H, the “effect of a mutation on the interaction” value was “with no effect”.

Variants of: B1
Conditions: with gata2_human GATA2, P23769
With R361H the “effect of a mutation on the interaction” value was “with no effect”.

Variants of: B1
Conditions: with gata3_human GATA3, P23771
For R361H, the “effect of a mutation on the interaction” value was “with no effect”.

Variants of: B1
Conditions: with gna11_human GNA11, P29992
R361H was tested, and the “effect of a mutation on the interaction” value was “with no effect”.

Variants of: B1
Conditions: with gnaq_human GNAQ
With R361H the “effect of a mutation on the interaction” value was “with no effect”.

Variants of: B1
Conditions: with grm1_human GRM1, Q13255
R361H was tested, and the “effect of a mutation on the interaction” value was “with no effect”.

Variants of: B1
Conditions: with grm3_human GRM3, Q14832
In the case of R361H, the “effect of a mutation on the interaction” value is reported as “with no effect”.

Variants of: B1
Conditions: with gsk3a_human GSK3A
For R361H, the “effect of a mutation on the interaction” value was “with no effect”.

Variants of: B1
Conditions: with hdac1_human HDAC1, Q13547
R361H was tested, and the “effect of a mutation on the interaction” value was “with no effect”.

Variants of: B1
Conditions: with hdac3_human HDAC3, O15379
For R361H, the “effect of a mutation on the interaction” value was “with no effect”.

Variants of: B1
Conditions: with hgf_human HGF
With R361H the “effect of a mutation on the interaction” value was “with no effect”.

Variants of: B1
Conditions: with h31_human H3C1, P68431
In the case of R361H, the “effect of a mutation on the interaction” value is reported as “with no effect”.

Variants of: B1
Conditions: with hlab_human HLA-B
In the case of R361H, the “effect of a mutation on the interaction” value is reported as “with no effect”.

Variants of: B1
Conditions: with hnf1a_human HNF1A
For R361H, the “effect of a mutation on the interaction” value was “with no effect”.

Variants of: B1
Conditions: with rash_human HRAS
R361H was tested, and the “effect of a mutation on the interaction” value was “with no effect”.

Variants of: B1
Conditions: with hs90a_human HSP90AA1, P07900
In the case of R361H, the “effect of a mutation on the interaction” value is reported as “with no effect”.

Variants of: B1
Conditions: with hs90b_human HSP90AB1, P08238
With R361H the “effect of a mutation on the interaction” value was “with no effect”.

Variants of: B1
Conditions: with il7ra_human IL7R
R361H was tested, and the “effect of a mutation on the interaction” value was “with no effect”.

Variants of: B1
Conditions: with irf6_human IRF6, O14896
For R361H, the “effect of a mutation on the interaction” value was “with no effect”.

Variants of: B1
Conditions: with irs1_human IRS1, P35568
In the case of R361H, the “effect of a mutation on the interaction” value is reported as “with no effect”.

Variants of: B1
Conditions: with jak1_human JAK1, P23458
With R361H the “effect of a mutation on the interaction” value was “with no effect”.

Variants of: B1
Conditions: with kdm5c_human KDM5C
For R361H, the “effect of a mutation on the interaction” value was “with no effect”.

Variants of: B1
Conditions: with vgfr2_human KDR
With R361H the “effect of a mutation on the interaction” value was “with no effect”.

Variants of: B1
Conditions: with keap1_human KEAP1, Q14145
Sequence of keap1_human KEAP1, Q14145 (Q14145 whole entry): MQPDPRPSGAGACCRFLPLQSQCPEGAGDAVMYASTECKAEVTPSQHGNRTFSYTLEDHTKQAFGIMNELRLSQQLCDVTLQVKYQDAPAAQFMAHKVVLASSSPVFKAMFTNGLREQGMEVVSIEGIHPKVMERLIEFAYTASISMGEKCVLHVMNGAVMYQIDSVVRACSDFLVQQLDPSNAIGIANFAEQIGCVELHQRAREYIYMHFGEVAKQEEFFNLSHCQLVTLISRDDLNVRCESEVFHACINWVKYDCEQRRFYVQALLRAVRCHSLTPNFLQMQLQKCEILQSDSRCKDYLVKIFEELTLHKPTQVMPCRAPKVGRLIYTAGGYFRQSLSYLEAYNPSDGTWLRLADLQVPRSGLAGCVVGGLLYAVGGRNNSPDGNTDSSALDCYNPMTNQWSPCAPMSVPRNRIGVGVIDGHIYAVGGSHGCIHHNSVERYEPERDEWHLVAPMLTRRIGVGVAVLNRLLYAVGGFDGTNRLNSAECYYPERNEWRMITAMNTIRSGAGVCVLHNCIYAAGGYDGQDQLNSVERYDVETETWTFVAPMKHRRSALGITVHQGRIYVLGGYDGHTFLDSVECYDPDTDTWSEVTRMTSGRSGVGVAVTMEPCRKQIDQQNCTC
For R361H, the “effect of a mutation on the interaction” value was “with no effect”.

Variants of: B1
Conditions: with klf4_human KLF4, O43474
For R361H, the “effect of a mutation on the interaction” value was “with no effect”.
